Results: patent US20220016165A1

Target: interleukin-6 receptor (IL-6R) (human) (UniProt P08887)
Assay: cell-based or functional assay

Chain of interleukin-6 receptor (IL-6R) (human) (P08887 20-468 limits assumed): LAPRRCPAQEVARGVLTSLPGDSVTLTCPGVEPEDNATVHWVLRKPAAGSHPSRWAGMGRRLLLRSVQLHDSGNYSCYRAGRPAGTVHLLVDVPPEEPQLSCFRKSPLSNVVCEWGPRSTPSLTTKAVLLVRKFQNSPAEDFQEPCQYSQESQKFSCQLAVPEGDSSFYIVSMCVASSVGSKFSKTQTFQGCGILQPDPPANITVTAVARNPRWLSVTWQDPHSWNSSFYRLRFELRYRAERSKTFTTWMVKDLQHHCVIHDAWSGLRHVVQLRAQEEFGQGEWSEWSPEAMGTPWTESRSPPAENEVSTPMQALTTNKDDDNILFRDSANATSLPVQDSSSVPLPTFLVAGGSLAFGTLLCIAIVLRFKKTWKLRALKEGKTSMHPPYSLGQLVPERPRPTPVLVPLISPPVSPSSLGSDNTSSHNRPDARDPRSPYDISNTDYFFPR

- median peak levels of serum IL-6 (day 3-5): 10 fold
Substance: tocilizumab (antibody)
